Measured values as given in patent US6638508B2, “Modified avidin-type molecules as targeting agents for the liver and cells of the reticuloendothelial system” (Yeda Research and Development Co., Ltd., priority 1995, dated 2003).

Legend:
[1] = Biodistribution of radioiodinated (125I) proteins, modified avidin-type molecules and their complexes after i.v. injection
Procedure: (ii) Animals. Age-matched CD-1 male mice (6-12 weeks old) were used in the experiments.
(iii) Biodistribution experiments. Groups of age-(6-12 weeks) and weight-matched male CD-1 mice were given intravenous (i.v.) injections into the lateral tail vein of radioiodinated ^125I-TNP- or ^125I-lactosylated-St (most biodistribution experiments were done in the range of 1-10 μg protein, 1 mCi of ^125I) into the lateral tail vein. At the time intervals indicated, blood samples were withdrawn from the tail, the mice were killed and their organs were dissected out, washed in PBS, blotted dry, weighed and counted for radioactivity. […] In subsequent experiments, CD-1 male mice were used and the results are presented as %/g or %/organ for single a single mouse or %/g ±SD or %/organ ±SD for pairs of mice unless otherwise stated.
(ii) Radioiodination. Proteins (0.2 mg/0.2ml) in 0.2M phosphate buffer pH 8.0 were reacted for 2 min with Na^125I (0.5 mCi for biodistribution experiment and 2.5mCi for external monitoring) in the presence of Chloramine-T (2mg/ml, 10 or 100 μl) in PBS for 2 min. The reaction, which facilitates attachment of the radioactive iodine to tyrosines, was terminated by the addition of sodium metabisulfite (2mg/ml, 10 or 100 μl) in PBS for 2 min followed by the addition of potassium iodide and carrier BSA (1 mg of each/0.1 ml PBS). The radioiodinated proteins ^125I-TNP-proteins were then chromatographed on Sephadex G-25 in PBS. TNP modification can take place before or after radioiodination. Avidin and TNP-Av, being low in tyrosine content (molar ratio of 4 tyrosine/avidin as compared to 24 tyrosine/streptavidin), were radiolabeled by ^125I-biotinyl-tyrosine as described below in Example 6.

[2] = [3H] radioactivity in tissue extracts after BT1-CMdex-FUR ([3H]-uridine) alone or complexed to TNP-St; type: in vivo, mice; conditions: 1 and 4 h
Procedure: The actual targeting of FUR to the liver was carried out by a BT1-CMdex (T-40)-FUR product in which FUR was trace-labeled with [^3H] uridine. Mice were injected with BT1-CMdex-FUR-([^3H]-uridine) alone or complexed to TNP-St and at set time intervals blood was withdrawn, organs were dissected out and weighed. Tissue extracts were prepared by blending blood and organs in an Ika Werk Ultra-Turrax blender in 5× vol (ml)/tissue weight (g) of 0.1N NaOH for 30 sec. After centrifugation, 50 μl samples were counted for [^3H] radioactivity. Results are expressed as %/g tissue or %/organ. As shown in FIGS. 11A and 11B, levels of untargeted BT1-CMdex-FUR ([^3H]-uridine) were low. […] Radioactivity levels in other organs were in the range of 5%/g tissue or less than 1%/organ (FIG. 11B). It can be calculated that upon injection of 200μg TNP-St as a vehicle for BT1-CMdex-FUR, 25 μg of the drug can be accumulated per gram liver.

[3] = Pt content in organs by flame atomic absorption spectrometry after CDDP complexed to BT1-CMdex-TNP-St or free CDDP; type: in vivo, mice; conditions: 2 h following injection of 300 μg free CDDP
Procedure: Pharmacokinetic studies confirmed the assumption of sustained release and prolonged maintenance of the complexed drug, as compared to the rapid elimination and inactivation of the free drug (Schechter et al., 1989a). Complexing CDDP to BT1-CMdex: BT1-CMdex (T-40) (0.15mM) was reacted with CDDP in DDW at a molar ratio of 1:60 for 24 h at 37° C. Following dialysis, the resulting BT1-CMdex-Pt contained 23-27 CDDP/CMdex. The complex BT1-CMdex-CDDP was reacted with TNP-St (at a ratio of 4:1) for targeting to the liver. […] To show the actual targeting of CDDP to the liver, CDDP was quantitatively determined in organs obtained at set time intervals following injection of 185 μg CDDP complexed to BT1-CMdex-TNP-St. Blood and organs were blended in an Ika Werk Ultra-Turrax blender (Jankel&Kunkel KG) in 5×Vol/tissue weight of 0.1N NaOH for 30 seconds. After centrifugation, the supernatants were filtered through Minisart 5 μm filter and the Pt content in the samples was determined by flame atomic absorption spectrometry (AA) at 265.9 nm in air-acetylene flame (in a Perkin Elmer 5100 PC spectrophotometer). Standards were prepared in a solution with matrix identical to that of the samples (i.e., normal tissues), to account for possible matrix interference. Results are expressed as %/g, i/organ or μg/organ in individual mice.

[4] = mouse, in vivo; cited from earlier work
[5] = Toxicity studies: liver histology, body weight and survival; type: in vivo, CD-1 mice; conditions: dose of 300 μg, observed for 4 months

DTPA-Gd substituted St: Gd-DTPA derivative of streptavidin
liver accumulation ([1]; liver, 24 h, FIG. 16): did not accumulate in the liver

O=c1[nH]c(=O)n([C@@H]2O[C@H](CO)[C@@H](O)[C@H]2O)cc1F [FUR, 5-fluorouridine]
tissue levels of free drug [2]: around 1 %/g tissue

N.N.[Cl][Pt][Cl] [CDDP, cis-dichlorodiamine platinum (cisplatin)]
Pt in liver or other organs [3]: essentially no Pt could be found

Lac-St: lactosylated streptavidin, molar substitution ratio 5:1
non-hepatic values, fold lower than St or TNP-St ([1]; mouse, in vivo): 10-20 fold

streptavidin
accumulation in the kidney ([1]; mouse, in vivo): 70-80%
blood levels ([1]; mouse, in vivo): 22-33 %/g
levels in other tissues, including the liver ([1]; mouse, in vivo): < 10 %/g
% of the total injected dose accumulated in each kidney [4]: 15%
levels in other organs [4]: 0.3-4 %/g

TNP-Av: avidin modified with 2,4,6-trinitrophenyl (TNP) groups
accumulation in the liver ([1]; mouse, in vivo): 30-40 %/g
accumulation in the spleen ([1]; mouse, in vivo): 10-15 %/g
effect on body weight or survival [5]: did not seem to affect

^125I-BT-St: radioiodinated biotinyl-tyrosine complexed to unmodified streptavidin
accumulation in whole kidney, % of injected dose of radioactivity/organ ([1]; mouse, in vivo): 10%

TNP-NL-Av: TNP-modified NeutraLite Avidin, a deglycosylated form of avidin
accumulation in the spleen ([1]; mouse, in vivo): up to 20 %/g

^125I-BT-TNP-St: radioiodinated biotinyl-tyrosine complexed to TNP-streptavidin
accumulation in whole liver, % of injected dose of radioactivity/organ ([1]; mouse, in vivo): 66-68%
